Measured values taken from patent US20220218639A1.

Target: fibrin (Homo sapiens (Human)) (UniProt P02671)

percent clot digestion (clot weight before and after 2 hours of incubation, in serum, background-corrected): 7.17%
Substance: δ-plasmin (enzyme)
